# Bridge positions count the residues as written; N and C are the ends. Ends that are not written are not given here. DVT = divinyltriazine staple linking the two cysteines
# Target: HumRadA22
# Experiment: fluorescence polarisation; competition: displacement of a fluorescently-labelled BRC4 repeat from HumRadA22; KD calculated from IC50; single titrations with three technical replicates at each point; mock (linear) samples with 500 uM TCEP
# Conditions: both partners purified
binder,measurement,value
"VNSSAFSGFCTASGKKLNVSCEALQKAVKLFSDIENIS (linker 10-21 via DVT (inferred); also: His8 tag in name not shown in chain) [GB1-SP7-His8, stapled with DVT]",Kd,149 nM

# — article PMC10699557, “A recombinant approach for stapled peptide discovery yields inhibitors of the RAD51 recombinase†” (Chemical Science, 2023)
